Here are results for 2 molecules from article PMC6773851, “Identification of protein-protein and ribonucleoprotein complexes containing Hfq” (Scientific Reports, 2019).

Usually EC50 stands for the midpoint of the concentration-response curve.

The test system of data set [1] is HfqH6 (Ec-HfqHis6) (Escherichia coli). Briefly: MST. As to conditions: Hill coefficient 4.0; concentration calculated with 1 kb average length; MST: 50 mM Tris-HCl pH 7.6, 50 mM NH4Cl, 1 mM EDTA, 0.1% Triton X100, 5% glycerol; room temperature; 100 nM labelled HfqH6. Total E. coli RNA (EC50 3.2e-7 M …).
In data set [2] the target is T1, Ec-HfqHis6 (purified) (E. coli, UniProt P0A6X3 1-102).
T1 construct: In MST labelled with a fluorescent dye (Protein Labeling Kit RED-NHS); also called HfqH6; purified Hfq
The data set is described as follows: MST; as the MST without RNA, but in the presence of E. coli total RNA; apparent affinity. As to conditions: both partners purified.

Data set [3] concerns the target T1, Ec-HfqHis6 (purified). Briefly: MST; one partner labelled (RED-NHS) and constant (HfqH6 100 nM), the other titrated; standard buffer (50 mM Tris-HCl pH7.6, 50 mM NH4Cl, 1 mM EDTA, 0.1% Triton X100, 5% glycerol); room temperature; Hill model; without RNA. As to conditions: both partners purified.

T1 sequence (P0A6X3 whole entry): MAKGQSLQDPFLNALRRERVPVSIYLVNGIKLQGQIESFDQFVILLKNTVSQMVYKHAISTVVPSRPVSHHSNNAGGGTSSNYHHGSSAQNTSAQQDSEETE

Take poly(A): the K half in data set [1] was 600 nM.

B1: Poly(A)polymerase, PAP (purified) (natural protein, E. coli, UniProt P0ABF1 11-465, looked up)
chain: KVLSREESEAEQAVARPQVTVIPREQHAISRKDISENALKVMYRLNKAGYEAWLVGGGVRDLLLGKKPKDFDVTTNATPEQVRKLFRNCRLVGRRFRLAHVMFGPEIIEVATFRGHHEGNVSDRTTSQRGQNGMLLRDNIFGSIEEDAQRRDFTINSLYYSVADFTVRDYVGGMKDLKDGVIRLIGNPETRYREDPVRMLRAVRFAAKLGMRISPETAEPIPRLATLLNDIPPARLFEESLKLLQAGYGYETYKLLCEYHLFQPLFPTITRYFTENGDSPMERIIEQVLKNTDTRIHNDMRVNPAFLFAAMFWYPLLETAQKIAQESGLTYHDAFALAMNDVLDEACRSLAIPKRLTTLTRDIWQLQLRMSRRQGKRAWKLLEHPKFRAAYDLLALRAEVERNAELQRLVKWWGEFQVSAPPDQKGMLNELDEEPSPRRRTRRPRKRAPRREGTA
notes: Poly(A) polymerase I, E. coli
With B1, the “fold decrease of the apparent affinity in the presence of total RNA” value with Ec-HfqHis6 (purified) [2] was approximately 10 fold. In the data set with Ec-HfqHis6 (purified) [3], this molecule registered an EC50 of less than 10 µM.
